Results: US20070015260A1, “Synthesis of synthons for the manufacture of bioactive compounds” (DIVERSA CORPORATION, priority 2002, published 2007)
“Also recorded” adds a separate entry of the source.

B1: S238D: DERA variant, phosphate binding pocket residue Ser238 replaced with Asp (protein, UniProt P0A6L0 1-259, looked up, variant S238D)
Deoxyribose-phosphate aldolase: MTDLKASSLRALKLMDLTTLNDDDTDEKVIALCHQAKTPVGNTAAICIYPRFIPIARKTLKEQGTPEIRIATVTNFPHGNDDIDIALAETRAAIAYGADEVDVVFPYRALMAGNEQVGFDLVKACKEACAAANVLLKVIIETGELKDEALIRKASEISIKAGADFIKTSTGKVAVNATPESARIMMEVIRDMGVEKTVGFKPAGGVRTAEDAQKYLAIADELFGADWADARHYRFGADSLLASLLKALGHGDGKSASSY
B2: K172E: DERA variant, basic phosphate binding pocket residue Lys172 mutated to Glu (protein, UniProt P0A6L0 1-259, looked up, variant K172E)
Deoxyribose-phosphate aldolase: MTDLKASSLRALKLMDLTTLNDDDTDEKVIALCHQAKTPVGNTAAICIYPRFIPIARKTLKEQGTPEIRIATVTNFPHGNDDIDIALAETRAAIAYGADEVDVVFPYRALMAGNEQVGFDLVKACKEACAAANVLLKVIIETGELKDEALIRKASEISIKAGADFIKTSTGEVAVNATPESARIMMEVIRDMGVEKTVGFKPAGGVRTAEDAQKYLAIADELFGADWADARHYRFGASSLLASLLKALGHGDGKSASSY
B3: G205E: DERA variant, neutral phosphate binding pocket residue Gly205 replaced with Glu (protein, UniProt P0A6L0 1-259, looked up, variant G205E)
Deoxyribose-phosphate aldolase: MTDLKASSLRALKLMDLTTLNDDDTDEKVIALCHQAKTPVGNTAAICIYPRFIPIARKTLKEQGTPEIRIATVTNFPHGNDDIDIALAETRAAIAYGADEVDVVFPYRALMAGNEQVGFDLVKACKEACAAANVLLKVIIETGELKDEALIRKASEISIKAGADFIKTSTGKVAVNATPESARIMMEVIRDMGVEKTVGFKPAGEVRTAEDAQKYLAIADELFGADWADARHYRFGASSLLASLLKALGHGDGKSASSY
B4: R207E: DERA variant, basic phosphate binding pocket residue Arg207 mutated to Glu (protein, UniProt P0A6L0 1-259, looked up, variant R207E)
Deoxyribose-phosphate aldolase: MTDLKASSLRALKLMDLTTLNDDDTDEKVIALCHQAKTPVGNTAAICIYPRFIPIARKTLKEQGTPEIRIATVTNFPHGNDDIDIALAETRAAIAYGADEVDVVFPYRALMAGNEQVGFDLVKACKEACAAANVLLKVIIETGELKDEALIRKASEISIKAGADFIKTSTGKVAVNATPESARIMMEVIRDMGVEKTVGFKPAGGVETAEDAQKYLAIADELFGADWADARHYRFGASSLLASLLKALGHGDGKSASSY

Experiments:
[1] = DERA addition (aldol) assay; format: biochemical; settings: spectrophotometric coupled-assay of substrate consumption and TLC of product formation
Experimental: DERA enzyme activity was assayed in the aldol synthesis direction by determining the concentration of acetaldehyde remaining by a coupled endpoint assay with yeast alcohol dehydrogenase (YADH, EC 1.1.1.1). 200 mM acetaldehyde, which had been freshly distilled under anerobic conditions, 200 mM (±)-glyceraldehyde and 0.2 mg/mL DERA in 50 mM triethanolamine, pH 7.5 buffer which had been deoxygenated with N2, were incubated under an N2 atmosphere at 22° C. At various time points, 50 μL aliquots were withdrawn and quenched into 15 μL of 60% perchloric acid. After a 5 min incubation on ice, 890 μL 1 M triethanolamine, pH 7.5 buffer and 45 μL 4 N NaOH were added to neutralize the solution. 20 μL of this solution was then assayed for remaining acetaldehyde. The amount of acetaldehyde remaining was equated to moles NADH consumed, as determined in triethanolamine pH 7.5 buffer containing 0.3 mM NADH, 20 μL the above quenched reaction aliquot and 0.05 mg/mL YADH. DR product formation was also confirmed by silica gel TLC with ethylacetate running solvent and p-anisaldehyde developing stain. Rf: glyceraldehyde=0.04 (stains brown) Rf:2-deoxyribose=0.1 (stains blue).

[2] = DERA cleavage (retroaldol) coupled assay, natural substrate DRP; format: biochemical; settings: for Km / kcat: retro-aldol, pH 7.5, 25° C.; for activity / kcat/KM with the natural substrate DRP, in words: compared to WT
Experimental: (§1) Enzyme activity was monitored by the standard coupled assay using α-Glycerophosphate Dehydrogenase (α-GPD, EC 1.1.18), and Triosephosphate Isomerase (TPI, EC 5.3.1.1). Enzyme activity was assayed in the retro-aldol, decomposition direction with 0.01-4 mM D-2-deoxyribose-5-phosphate (DRP) or 5 to 200 mM D-2-deoxyribose in 50 mM triethanolamine hydrochloride pH 7.5 buffer using a GPD/TPI (1.6 U/mL Sigma G-1881) coupled enzyme system at 25° C. in the presence of 0.3 mM NADH by observing the rate of decrease of NADH concentration as monitored at 340 nm, ε=6220 M^−cm^−1.

[3] = DERA cleavage (retroaldol) coupled assay, unnatural substrate DR; format: biochemical; settings: for ratio of specificity constants {kcat/KM (DR)}/{kcat/KM (DRP)}: DR compared to DRP, read; for activity / specificity with DR, in words: compared to WT; for Km / kcat: retro-aldol, pH 7.5, 25° C.
Experimental: as §1

[4] = system: E. coli SELECT (Δace, adhC, DE3) cells; test: In vivo selection: growth of E. coli SELECT with supplementation substrates; format: cell-based; settings: for toxicity of supplementation substrate to SELECT cells: together with sodium acetate
Source text: SELECT was transformed with the DERA expressing plasmid, pET30a WT DERA, and growth conditions were then optimized for the expression of soluble active DERA enzyme. Selection conditions were further optimized using DERA's natural substrate DRP as a supplementation substrate and FIG. 6 illustrates that viable selection conditions are achieved. In the absence of 2-carbon supplementation, neither SELECT cells transformed with a plasmid which expresses WT DERA nor those transformed with a nonexpressing plasmid (−) grow. By contrast, both grow in the presence of sodium acetate supplementation. […] Proof of principle for this selection system arises from the fact that only E. coli SELECT cells transformed with plasmid that expresses WT DERA grow when DRP is used as the supplementation substrate. Furthermore, that the endogenous genomic E. coli DERA is not expressed at a sufficiently high level to affect the use of DRP as a 2-carbon source by virtue of its metabolism to acetaldehyde and D-glyceraldehyde-3-phosphate was established. […] A novel activity-based selection system is thus established and can be used to select for a DERA variant which can catalyze the retro-aldol reaction of DR and other nonphosphorylated substrates. Work is in progress to identify novel DERA variants for this purpose.
Plasmids were transformed into electrocompetent SELECT cells and subjected to 1 h outgrowth at 37° C. in 1 mL SOC medium supplemented with 0.1% sodium acetate. The cells were then collected by centrifugation at 4° C., 3000 rpm for 10 min. The supernatant was discarded and the pellet gently resuspended M9 0.2% glucose. This was repeated twice. The cells were then diluted to OD600=0.001 in M9 0.2% glucose, 0.01 mM IPTG, 10 μg/mL kanamycin. The appropriation supplementation substrate (sodium acetate, D-2-deoxyribose-phosphate or D-2-deoxyribose) was then added at 0.1% w/w concentration. After an appropriate selection time at 37° C., typically 24-72 h, the cells were harvested by centrifugation and their amplified plasmids isolated.

[5] = Sequential asymmetric aldol reaction with azidoaldehyde acceptor; format: biochemical; settings: 3-azidopropinaldehyde acceptor, two molecules of acetaldehyde as donor
[6] = DERA catalysis with 2-methyl-3-hydroxypropinaldehyde as acceptor; format: biochemical; settings: L-2-methyl derivative as substrate

Molecule	relative activity of the DERA variants in the aldol direction [1]	Km [2] [mM]	kcat [2] [s⁻¹]	ratio of specificity constants {kcat/KM (DR)}/{kcat/KM (DRP)} [3]	activity / specificity with DR, in words ([3]; substrate DR)	Km ([3]; substrate DR) [mM]	kcat ([3]; substrate DR) [s⁻¹]	growth of SELECT cells transformed with expressing plasmid ([4]; DRP as the supplementation substrate)	acceptance of the azidoaldehyde as substrate [5]	toxicity of supplementation substrate to SELECT cells [4]	improvement in kcat/KM compared to that of the wild type [6] [fold]	activity / kcat/KM with the natural substrate DRP, in words [2]	improvement in kcat/KM compared to WT-DERA ([3]; substrate DR) [fold]	decrease in kcat/KM ([3]; substrate DR) [fold]
WT: wild-type E. coli 2-deoxyribose-5-phosphate aldolase (DERA, EC 4.1.2.4)	S238˜DS239W>WT>R207E>K172E>G205E	0.64 ± 0.01	68 ± 1	1.9 × 10^−5	cannot accept the unnatural substrate DR efficiently	57 ± 7	0.107 ± 0.005	grow	not a substrate; also recorded: inactive	–	–	–	–	–
O=CC[C@@H](O)[C@H](O)COP(=O)(O)O [DRP, D-2-deoxyribose-5-phosphate]	–	–	–	–	–	–	–	–	–	neither of these supplementation substrates nor their metabolic products are toxic to the cells	–	–	–	–
O=CC[C@@H](O)[C@H](O)CO [DR, D-2-deoxyribose]	–	–	–	–	–	–	–	–	–	neither of these supplementation substrates nor their metabolic products are toxic to the cells	–	–	–	–
B1	S238˜DS239W>WT>R207E>K172E>G205E	61 ± 11	0.58 ± 0.05	0.13	–	39 ± 6	0.21 ± 0.01	–	catalyzes a novel sequential aldol reaction; also recorded: accepts 3-azidopropionaldehyde as a new substrate	–	5	substantially decreased	2.5	–
B2	S238˜DS239W>WT>R207E>K172E>G205E	–	–	0.27	–	63 ± 22	0.022 ± 0.02	–	–	–	–	–	–	5
B3	S238˜DS239W>WT>R207E>K172E>G205E	–	–	3.1 × 10^−3	virtually inactive	–	–	–	–	–	–	virtually inactive	–	–
B4	S238˜DS239W>WT>R207E>K172E>G205E	–	–	2.2	virtually unchanged	33 ± 3	0.064 ± 0.001	–	–	–	–	–	–	–
